test: soluble on expression in E. coli; label from the status in PepcDB or PDB records

Sequence | soluble on expression in E. coli
MAHHHHHHMSSAHKPTTQEAINFFKQYREKFQRSSSGGNSPSQNSVNASPQQNIVTQVQQVDVVPDLTTRSIIPMNRRNGTTTTRLDLLRKSPTNCSPCLVQEVEIKPLLPPLPFASVPKVTLVLDVDETLVHSTFQPSSDVVYDKVLLVPSEGKTYTVSVKYRPYLEDFLRFVSRRFEVVIFTASMRAYCDKLMDEIDPHGILGNLRLFREHCTFSERSYVKDLHRLGRDLRRVVILDNSPAAYSFQQRNAIPIKTWINDPKDRELFLLLPLLDRLAMCDSVYSELDPYNARGCDYL | not soluble
MAHHHHHHMSTAKSFPMAQLSTRAQYSRMQREFVQLQRQENPRNINFTTSLKNRHKNRYLDILANEETIYPPVLKAVGAQPGRYPYINGNLIDLDLPHTFVACQAPVPQGVPDFLETLSEKKVDLVVMLTKLREGGVLKAERYWPEEEEDSLSFPESGHDAIKVTRDAEASYEVDAELDIVRRPLVIHVPGKPMHRVLQVQYVGWPDHGVPESAASFDELLSVIKNCVTTSPILVHCSAGIGRTGTLIGAYAALLHIERGILTDSTVYSIVAAMKQKRFGMVQRLEQYAVIYMTVLGRLGVDISGLVSTLNLKA | soluble
MAHHHHHHMSTFARRRIIQDLNKINKEKNKSFEASPFADNIMYCHAIIRGPDDTIWECGIFHLIIHFSEEYPVSPPKLRFLSKIYHPNIYSDGNICLDILQNQWSPIYDITSILTSIQSLLNDPNTSSPANPEAARIFINNRNLYNKRVLMCVEDSWEIPKFNINNYS | not soluble
MAHHHHHHMSTVEELKFIWKFLFSHMNTEKSKEEICDEKKYEENIILLKKLMRTENIKFDQKYNAINILEKLKDIEDIQYEDILNDYAKNFLTFLKGSFEKVAEEIQINDKISFRRNELIKQDLNNKLQNLNHNYNLEYINLNKCLGTEDFESQLNASLKFNSLKDILSKLLKEMKDYEIQYNNLSDTDKFLDMKICELENYLNNTNQNS | not soluble
MAHHHHHHMTGSDEEFEIGDILDIKKKKNGFIYLVNWKGYSDDENTWEPESNLLHLTTFKKKMELLKSAYLNKVDTTQNDGNLLKNHLTSPSSLQEETGTTNITKTKGRNPLISKKKGNKKGVTNKLEAKKLLSTNSDNSQKMSDDEYNESIKQETIENPHDSSLLNVEDVYSVRIKNRKMEFLASLKNASPQWVEESNIRRTGHLNIKVNDFKKYIRRKKTSKGNRIVIKNLHNVGDELYISVIHNINNKEIHSLYPSKVIEYIYPQELLNFLLSRLRYRTA | soluble
MAHHHHHHMTQSVSIGADHRLEATTSDCVSSVCFSPKECPMLMTGVASWDGSCSIWQVARNPAGAVISQPAWTTTHDSPLLTMSFSADGRVFFGGCSKTAVMWDLNSNQKAVVASHDLPISCLDFLTLPQTMSQMLITGSWDGKLRWWDLRQQSYVREENLGEPVFALDAQKTVPMMAAATGRLAHVYDVQQMQKVNELKLPDVMKFNLRCITCAPQYDGVGVGSSEGRVSFISMKDAPGCTFKAHITTEKSHYILSQTNFCVHHPTLPLLLSGGGDGNLTVINRADRKVIKTLQCEQKVGTQAIPISAGDISADGSLVAYAHSYDWAMGKSGYRNQPTSVHIRPLS | not soluble
MAHHHHHHMTRDDGTQVAQLLSEGKYNLPMFLRYLKASSMEGDQPDKSLLLGILLQSLARFQTSDFTACMCLVPSHVQDSPSVEKELNYIYGLENLLSCGLFARFWTQWSSVKEHLPESFHFEARVRTSILETICITMESIPTEKLATYLAVSPDQVQKVVHNAMKDSEDRDMKVMAYDSGSVVFHRNRFNYPQAGAAQDAIRFTDVSSVIHNDVPRRGAAVAADETRDVRARTWARMADE | soluble
MAHHHHHHMTRTKVKKVQMQMKARETVAPPSTACTTTRCLYTLTTFDVKSGGVKTSGEFPAGGGPKLPRDPLLHYFVKSLHGFLSTCLVVTSQRLVTFSANNNFFCIATVFPTLHTSPSVKNSKSLALRGKTENVVTERLGV | not soluble
MAHHHHHHMTSFMLATNCPDELCCALCLDSWKKPVELQPCGHIFCQECIGAPRVCPVCRAPVNCTKQPHRSLVNLAQNLPVRCSSCGWTGRREGSDSHTCPTASWSGSTEAPSTTNAQSTCQGSRQQSVADTPWLRYGLTQEEYDSIVALFVFFDSDESGHLCREEMGRLARWLNFARTDDDIDRMFREMDEDGTGTLCLEEFLSWLSKNRPDPSVLYGMSQQQYNCVMMQFRLYDRDRDGFLDADDFSKLAVRIGDVPDIESGMQLFRSITTGHCEKIGLHQFLLYCVGRMFR | not soluble
MAHHHHHHMTSVEAENQPVEDPETFVVMEENGAPRDPQVAVSALDEAAEEGAVSGGEREPAAAGDDLSNPHVFKVAAREVDEGYMSVIRGLSAFGRADEEVCRNAVDICKDIIAMEQSLFSEVPSYVTNYASMQRAKTVVLNKAVRPHWTIPTPEGPPRTWEEQRAYVDPGVPLMLPYSAERFKKEHPERALVEGTYHNLFYGDGTQVVFTASADNKRKQIEEEKRKHPHPSYHGPYVFEPQQKKPMRVASDFVPSCAEPDRLRVDLRKKPVTKAKAEKSQKKKVTTK | not soluble
MAHHHHHHMTVAKKCMVVLQHGSHGTHLDLACLSQYLKAKDPRLIVWESYKNEGMRTDDGVVPCGERLADNLIREIKELCSTPTQSGGDGGREKVVVQMSFVCHSMGGLIVREALPRVWDKVESQKGKLEIEWNMFCTIATPHGGVCQMASTLRYYLGRLISFFYSTSYHDMFLGSDVLTDRLLSPKHLSCLAAFKRRLLVSSINDILVPLMSSGFMLTPSQRGLPGDMLREEQKQLCAFNEREMYDKMRTITEIPKEEWPANKFLAERRIAKTLVQAVGNFDSVVVDLRSPRLEELYEDRKRRTTAWYGANKRSHQAMVCKPPFDTVEEAFGFVSHMVGDEVLATFQE | not soluble
MAHHHHHHMTVKNAAKSGKYVWHAMPEEVRKSLKRGSVDETNGIKMGKKGTHATPSEPIYMEVPPDETQRKEKSPPRGMALPHVSTPNEKQPTPMPGETTNSGDVVVSQESGCVGVTHGTQSLSSSRTLKTKHVLHFRGPGWEKVLRKNKKGLESAFKKDVFEATGLEARRIEELKFEFASMLIVTFVVRRENDDEGTSKLHSDLQACAFPRTVLLYRN | soluble
MAHHHHHHMVFSTHGIRVVYNTANVDRSLYAVVHCSDGKYAEVSKDHLNRLKFIEKSSEEEDIEFDYPEAVLESLAQWTLKYGMDGVAVSSTVRPCIYRNVQHVLKDDWEREFFTTRLMNDLNIMHYLQTINAAEKYEMKGFHDFLCVCLSCKLRNEEDTELVHKIMGLEDFVEIGPSDLDEAACRYTWLDQAIKPTVRR | not soluble
MAHHHHHHMVQEWWVSAAQEAVISRKATSRAERIVTEADDPRSGTSHFYDSDARLCLVCNARLEGSYSAHSHSVDHKPRVALLKRTIGMILTFLEQAGSSPSLPPPPESDSPYSLPGSKRFLVSVSTHTGTPAAPAPSCFHALYAESPLFAEDGVPSRALLYHRPCTLREFDLVDVIMRRWWNTLHNPPPRRGSISFDRLLSLSSAELQMRRWRVRYLLHFLKSRGVLRSCLTLRSDQVNAAPSPNERIHRGEAFERLEMVGDFFFKSLTPDRMHTVFPADEGGLTAELQCFERALDSNHGLLAIYDYLGLDDIVGCFLANNKAKADVVEAVIGELKVLLWSTEVVWGMEYYAVPGERATHVYLRALVAHTIAELGHTVLMWQLESTLRNCRDFLLKHTVEEYLGAEKGNERRASRGGDGCDVPADLPKYSPLPPLLAWNRRRLGVSMRRGEVPLASKQSRSSIPPSPQDPLRRLAPTASCIPEAIRDHYAVGRKKWSSYACKTAIQALCASLTQTALQHDSGHTADALSLNSSSASLPLSPEPQPSPTTPAYACVPRSVLRALVTANCVVIRNSAPPLARSTSTRRVAG | not soluble
MAHHHHHHMWRPRRVQGLGSGEDICHLVSAVRRQGIRSLPSGLVVAAEIAYRCCSYSIESFQTDSTEAKKPSRVVGTAPTERQKRPSALAPSSSIPATEKAGIIVEWVPDALGYHLPLGLRERWEPSSKASPTEAGGLKASNDAETHGTEQQELEEVSSVGNPCASSRVGDGGGGSGHRSGHSDGPPFYGPLPNFATSPVFEWERCLWQWRPVKITPAAGTPHHTSLTVTAPISSSGEKRPLRDEMHCSDGGENDLAEGGLGESSQVYHLVPFLLCPTLEVCATQPLMHGSLRKELAAAQNACHHLRRSWPEDAKQDLLGTRRCPTYSEHETRLWSITIPTPVGELALSSPQDTDGDDANKQNTMLDLPTFAMIEGEPPMRVGGRIRACCGHGITSPAPPEAETWEAATAAARNERSTSAGNAAVPYVHVFCSEMSAACSDSLLSQTGIKASELPTPSSCDVSSPTLPLTRRNVVGGGLAELILAVDRYAALIARGDLALSAACWATLCDTKSWWVVQRLRVCPLEMERELVAATEAHKLWQQYAVSRNSTLVGKSSHGICFYDYPFLAKWPLGRQAATKATAPIRAHTRWRV | not soluble
MAHHHHHHMYNPALPNHYRGVVFAAYVRRRQREEAAAAQQQRQPNALASALSASSLAAPSMASVTAPLLGLSAEELHQHRIKESAALGIQRAVMMEKEALEVEHKKRKLEGSDARSRISSRLDKLKALAAKSKAVTGVSASLDAGDAILQAGGPSSPTSSQRTSSSSFDAEAAPSAPLVFQRSSLAAGGYVMAAADPSLPGMLLRTKTRSAVQGKPSSTLLLRFLHDSPVLGWKEAAIAEASTLSSAESSLCAPVLSQVQQLCRRFGFVRSMAAHVYAEDVVTAALARARSQTSAETQVPSAEAVRREQLRVWVRFDSVTEAFKAAESLAKEVSPATPAGRPVFAVAFYPTGLYDSGALELREEDLLSPSA | not soluble
MAHHHHHHMYYIYFENVKDEKEKKECEEFIYQIYMMENIKKDAILKLKNEKNENLYLLYLYYKYYYMNDKENVLNEIKQLNTSSCNANILKSRIFFDNDLLDECFDLLENGTIEIKAAKIFFLLNINRQDIVNEIIKDFLHMNEEIPIIKIVLAIYYLFNDNNKESFLIFDDLESLYGSMINDHSNIILNGKAVASILNYEFNDAKEFLKNQINNGDILYNLITCSLYLYELDEANEYLTKLYDNYSSHDSLKVLKKIDDEVDNFVSEF | not soluble
MAHHHHHHSLALIVKIGGSIQKDEKDYELIVKKIQDFSKKSDKIIVVTSAIKNVTNELISATSNTDNSPNIVTEIYERHIKLLSKLADGKEFENSFKDISRLSDELFRVAWSIRVLDEVTPRVRDYILSFGERMATLLLSAILRSNGIEAEGIITPPFLTDENYGEANVIEDLSKNEIANILENAKANVIVLPGFIGRTREGRYTTLGRGGSDYTATLLGKLVGVREVRLVTEVPGIMTGDPKKFENAKTISRLSLEEAIELSQLGAKRLHPRTFDPVFGSDMKVIVESLYEDGFTIINGECQNNDGLKGISLLDNAKLITVESTKIVGKIGSAARITNEAKEAGVNIISISQPASETTIQLVVDSLSANRLLSKLEEIRGTLVKDIEVNDINIVGIVGCGIKKKEISTKVLSIASSYDPLAISRGISNVSMTFIVNKDEGEKLAKELHKVIVSGEG | soluble
MAHHHHHHSLIQAVLFDLDGTLADTALDLGGALNTLLARHGLPAKSMDEIRTQASHGAAGLIKLGAGITPDHPDYARWRTEYLDEYDSRYAQDTTLFDGVNELIAELGKRGIKWGIITNKPMRFTDKLVPKLGFIIPPAVVVSGDTCGEPKPSVKPMLYACGQIHADPQHTLYVGDAERDIQAGRNAGMTTVLAEWGYIAPEDDTGSWQADFHIRTPLDLLECLDKIQPEG | soluble
MAHHHHHHSLISNHFLRDLYAIIVDDVGRFKPSAILDVGCGTGTADYFILSAFPDISVDCIDPSPYMISIARKKLSKFGSRVRAELGSSRSIPFDRRYDFVFTSISFHHWKCREDGLRNMAKYVSDHGVLAVYEYYRPNLRSFHRVAGKHALTMEDVEKLNIEGFTKKYEIRGEMMRIMFQRDEG | soluble

Reference: the DeepSol protein solubility set
